B1: P1AE5739 (antibody, V domains shown)
VH: EVQLVESGGGVVQPGRSLRLSCAASGFSFSNYGMAWVRQAPGKGLEWVASISTGGGNTYYRDSVKGRFTISRDNAKNTLYLQMNSLRAEDTAVYYCTRHDRGGLYWGQGTMVTVSS
VL: DIVMTQSPLSLPVTPGEPASISCRSSKSLLHSNGITYVYWYLQKPGQSPQVLIYRMSNLASGVPDRFSGSGSGTDFTLKISRVEAEDVGVYHCGQLLENPYTFGQGTKLEIK
B2: P1AE5742 (antibody, V domains shown)
VH: EVQLVESGGGVVQPGRSLRLSCAASGFSFSNYGMAWVRQAPGKGLEWVASISTGGGNTYYRDSVKGRFTISRDNAKNTLYLQMNSLRAEDTAVYYCTRHDRGGLYWGQGTMVTVSS
VL: DIVMTQSPDSLAVSLGERATINCKSSKSLLHSNGITYVYWYQQKPGQPPKLLIYRMSNLASGVPDRFSGSGSGTDFTLTISSLQAEDVAVYHCGQLLENPYTFGQGTKLEIK
B3: P1AE5750 (antibody, V domains shown)
VH: EVQLVESGGGVVQPGRSLRLSCAASGFSFSNYGMAWVRQAPGKGLEWVASISTGGGNTYYADSVKGRFTISRDNAKNTLYLQMNSLRAEDTAVYYCTRHDRGGLYWGQGTMVTVSS
VL: DIVMTQSPLSLPVTPGEPASISCRSSKSLLHSNGITYVYWYLQKPGQSPQVLIYRMSNLASGVPDRFSGSGSGTDFTLKISRVEAEDVGVYHCGQLLENPYTFGQGTKLEIK
B4: P1AE5734 (antibody, V domains shown)
VH: QVQLVESGGGVVQPGRSLRLSCAASGFSFSNYGMAWVRQAPGKGLEWVASISTGGGNTYYRDSVKGRFTISRDNSKNTLYLQMNSLRAEDTAVYYCTRHDRGGLYWGQGTMVTVSS
VL: DIVMTQSPLSLPVTPGEPASISCRSSKSLLHSNGITYVYWYLQKPGQSPQVLIYRMSNLASGVPDRFSGSGSGTDFTLKISRVEAEDVGVYHCGQLLENPYTFGQGTKLEIK
B5: P1AE5755 (antibody, V domains shown)
VH: EVQLVESGGGLVQPGGSLRLSCAASGFSFSNYGMAWVRQAPGKGLEWVASISTGGGNTYYRDSVKGRFTISRDNAKNTLYLQMNSLRAEDTAVYYCTRHDRGGLYWGQGTMVTVSS
VL: DIVMTQSPLSLPVTPGEPASISCRSSKSLLHSNGITYVYWYLQKPGQSPQVLIYRMSNLASGVPDRFSGSGSGTDFTLKISRVEAEDVGVYHCGQLLENPYTFGQGTKLEIK
B6: P1AE5756 (antibody, V domains shown)
VH: EVQLVESGGGLVQPGGSLRLSCAASGFSFSNYGMAWVRQAPGKGLEWVASISTGGGNTYYRDSVKGRFTISRDNAKNTLYLQMNSLRAEDTAVYYCTRHDRGGLYWGQGTMVTVSS
VL: DIVMTQSPLSLPVTPGEPASISCRSSKSLLHSNGITYVYWYLQKPGKSPQVLIYRMSNLASGVPDRFSGSGSGTDFTLKISRVEAEDVGVYHCGQLLENPYTFGQGTKLEIK
B7: P1AE5740 (antibody, V domains shown)
VH: EVQLVESGGGVVQPGRSLRLSCAASGFSFSNYGMAWVRQAPGKGLEWVASISTGGGNTYYRDSVKGRFTISRDNAKNTLYLQMNSLRAEDTAVYYCTRHDRGGLYWGQGTMVTVSS
VL: DIVMTQSPLSLPVTPGEPASISCRSSKSLLHSNGITYVYWYLQKPGKSPQVLIYRMSNLASGVPDRFSGSGSGTDFTLKISRVEAEDVGVYHCGQLLENPYTFGQGTKLEIK
B8: P1AE5735 (antibody, V domains shown)
VH: QVQLVESGGGVVQPGRSLRLSCAASGFSFSNYGMAWVRQAPGKGLEWVASISTGGGNTYYRDSVKGRFTISRDNSKNTLYLQMNSLRAEDTAVYYCTRHDRGGLYWGQGTMVTVSS
VL: DIVMTQSPLSLPVTPGEPASISCRSSKSLLHSNGITYVYWYLQKPGKSPQVLIYRMSNLASGVPDRFSGSGSGTDFTLKISRVEAEDVGVYHCGQLLENPYTFGQGTKLEIK
B9: P1AE5751 (antibody, V domains shown)
VH: EVQLVESGGGVVQPGRSLRLSCAASGFSFSNYGMAWVRQAPGKGLEWVASISTGGGNTYYADSVKGRFTISRDNAKNTLYLQMNSLRAEDTAVYYCTRHDRGGLYWGQGTMVTVSS
VL: DIVMTQSPLSLPVTPGEPASISCRSSKSLLHSNGITYVYWYLQKPGKSPQVLIYRMSNLASGVPDRFSGSGSGTDFTLKISRVEAEDVGVYHCGQLLENPYTFGQGTKLEIK
B10: P1AE5761 (antibody, V domains shown)
VH: EVQLVESGGGLVQPGGSLRLSCAASGFSFSNYGMAWVRQAPGKGLEWVASISTGGGNTYYADSVKGRFTISRDNAKNTLYLQMNSLRAEDTAVYYCTRHDRGGLYWGQGTMVTVSS
VL: DIVMTQSPLSLPVTPGEPASISCRSSKSLLHSNGITYVYWYLQKPGKSPQVLIYRMSNLASGVPDRFSGSGSGTDFTLKISRVEAEDVGVYHCGQLLENPYTFGQGTKLEIK
B11: P1AE5752 (antibody, V domains shown)
VH: EVQLVESGGGVVQPGRSLRLSCAASGFSFSNYGMAWVRQAPGKGLEWVASISTGGGNTYYADSVKGRFTISRDNAKNTLYLQMNSLRAEDTAVYYCTRHDRGGLYWGQGTMVTVSS
VL: DIVMTQSPLSLPVTPGEPASISCRSSKSLLHSNGITYVYWYLQKPGQSPQLLIYRMSNRASGVPDRFSGSGSGTDFTLKISRVEAEDVGVYHCGQLLENPYTFGQGTKLEIK
B12: P1AE5744 (antibody, V domains shown)
VH: QVQLVESGGGVVQPGRSLRLSCAASGFSFSNYGMAWVRQAPGKGLEWVASISTGGGNTYYADSVKGRFTISRDNSKNTLYLQMNSLRAEDTAVYYCTRHDRGGLYWGQGTMVTVSS
VL: DIVMTQSPLSLPVTPGEPASISCRSSKSLLHSNGITYVYWYLQKPGQSPQVLIYRMSNLASGVPDRFSGSGSGTDFTLKISRVEAEDVGVYHCGQLLENPYTFGQGTKLEIK
B13: P1AE5741 (antibody, V domains shown)
VH: EVQLVESGGGVVQPGRSLRLSCAASGFSFSNYGMAWVRQAPGKGLEWVASISTGGGNTYYRDSVKGRFTISRDNAKNTLYLQMNSLRAEDTAVYYCTRHDRGGLYWGQGTMVTVSS
VL: DIVMTQSPLSLPVTPGEPASISCRSSKSLLHSNGITYVYWYLQKPGQSPQLLIYRMSNRASGVPDRFSGSGSGTDFTLKISRVEAEDVGVYHCGQLLENPYTFGQGTKLEIK
B14: P1AE5737 (antibody, V domains shown)
VH: QVQLVESGGGVVQPGRSLRLSCAASGFSFSNYGMAWVRQAPGKGLEWVASISTGGGNTYYRDSVKGRFTISRDNSKNTLYLQMNSLRAEDTAVYYCTRHDRGGLYWGQGTMVTVSS
VL: DIVMTQSPDSLAVSLGERATINCKSSKSLLHSNGITYVYWYQQKPGQPPKLLIYRMSNLASGVPDRFSGSGSGTDFTLTISSLQAEDVAVYHCGQLLENPYTFGQGTKLEIK
B15: P1AE5760 (antibody, V domains shown)
VH: EVQLVESGGGLVQPGGSLRLSCAASGFSFSNYGMAWVRQAPGKGLEWVASISTGGGNTYYADSVKGRFTISRDNAKNTLYLQMNSLRAEDTAVYYCTRHDRGGLYWGQGTMVTVSS
VL: DIVMTQSPLSLPVTPGEPASISCRSSKSLLHSNGITYVYWYLQKPGQSPQVLIYRMSNLASGVPDRFSGSGSGTDFTLKISRVEAEDVGVYHCGQLLENPYTFGQGTKLEIK
B16: P1AE5736 (antibody, V domains shown)
VH: QVQLVESGGGVVQPGRSLRLSCAASGFSFSNYGMAWVRQAPGKGLEWVASISTGGGNTYYRDSVKGRFTISRDNSKNTLYLQMNSLRAEDTAVYYCTRHDRGGLYWGQGTMVTVSS
VL: DIVMTQSPLSLPVTPGEPASISCRSSKSLLHSNGITYVYWYLQKPGQSPQLLIYRMSNRASGVPDRFSGSGSGTDFTLKISRVEAEDVGVYHCGQLLENPYTFGQGTKLEIK
B17: P1AE5757 (antibody, V domains shown)
VH: EVQLVESGGGLVQPGGSLRLSCAASGFSFSNYGMAWVRQAPGKGLEWVASISTGGGNTYYRDSVKGRFTISRDNAKNTLYLQMNSLRAEDTAVYYCTRHDRGGLYWGQGTMVTVSS
VL: DIVMTQSPLSLPVTPGEPASISCRSSKSLLHSNGITYVYWYLQKPGQSPQLLIYRMSNRASGVPDRFSGSGSGTDFTLKISRVEAEDVGVYHCGQLLENPYTFGQGTKLEIK
B18: P1AE5745 (antibody, V domains shown)
VH: QVQLVESGGGVVQPGRSLRLSCAASGFSFSNYGMAWVRQAPGKGLEWVASISTGGGNTYYADSVKGRFTISRDNSKNTLYLQMNSLRAEDTAVYYCTRHDRGGLYWGQGTMVTVSS
VL: DIVMTQSPLSLPVTPGEPASISCRSSKSLLHSNGITYVYWYLQKPGKSPQVLIYRMSNLASGVPDRFSGSGSGTDFTLKISRVEAEDVGVYHCGQLLENPYTFGQGTKLEIK
B19: P1AE5762 (antibody, V domains shown)
VH: EVQLVESGGGLVQPGGSLRLSCAASGFSFSNYGMAWVRQAPGKGLEWVASISTGGGNTYYADSVKGRFTISRDNAKNTLYLQMNSLRAEDTAVYYCTRHDRGGLYWGQGTMVTVSS
VL: DIVMTQSPLSLPVTPGEPASISCRSSKSLLHSNGITYVYWYLQKPGQSPQLLIYRMSNRASGVPDRFSGSGSGTDFTLKISRVEAEDVGVYHCGQLLENPYTFGQGTKLEIK
B20: P1AE5746 (antibody, V domains shown)
VH: QVQLVESGGGVVQPGRSLRLSCAASGFSFSNYGMAWVRQAPGKGLEWVASISTGGGNTYYADSVKGRFTISRDNSKNTLYLQMNSLRAEDTAVYYCTRHDRGGLYWGQGTMVTVSS
VL: DIVMTQSPLSLPVTPGEPASISCRSSKSLLHSNGITYVYWYLQKPGQSPQLLIYRMSNRASGVPDRFSGSGSGTDFTLKISRVEAEDVGVYHCGQLLENPYTFGQGTKLEIK

Biological target: human GPRC5D (human, UniProt Q9NZD1 1-345)
Sequence (Q9NZD1 whole entry): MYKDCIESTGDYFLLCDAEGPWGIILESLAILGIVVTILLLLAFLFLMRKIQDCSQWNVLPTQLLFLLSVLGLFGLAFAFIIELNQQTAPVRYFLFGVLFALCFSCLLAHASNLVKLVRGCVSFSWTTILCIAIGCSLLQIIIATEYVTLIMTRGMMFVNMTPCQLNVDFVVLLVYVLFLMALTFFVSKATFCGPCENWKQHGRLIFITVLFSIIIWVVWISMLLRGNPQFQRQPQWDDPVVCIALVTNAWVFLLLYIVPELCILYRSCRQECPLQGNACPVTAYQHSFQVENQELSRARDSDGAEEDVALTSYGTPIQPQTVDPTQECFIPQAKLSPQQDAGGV
Assay: cell-based or functional assay

Binder | CAR-J2 EC50 (PGLALA-CAR-J activation, L363 target cells)
B1 | 23.5 ng/mL
B2 | 61.9 ng/mL
B3 | 20.6 ng/mL
B4 | 41.5 ng/mL
B5 | 152 ng/mL
B6 | 170 ng/mL
B7 | 8.96 ng/mL
B8 | 82.1 ng/mL
B9 | 6.44 ng/mL
B10 | 74.6 ng/mL
B11 | 509 ng/mL
B12 | 3.63 ng/mL
B13 | 1.4 ng/mL
B14 | 2.95 ng/mL
B15 | 190 ng/mL
B16 | 1.38 ng/mL
B17 | 145 ng/mL
B18 | 1.62 ng/mL
B19 | 84.2 ng/mL
B20 | 514 ng/mL
